# Data taken from the supplement of paper PMC7877785.
# ± gives the uncertainty stated by the source.
# Assay: self-splicing fitness, log relative to wild type (ln ratio); higher = more splicing; Tetrahymena group I intron in knt gene, E. coli kanamycin selection, DiMSum; sequences stand for … in CUCUCU…GGAGGGAAAAGUUAUCAGGCAUGCACCUGGUAGCUAGUCUUUAAACCAAUAGAUUGCAUCGGUUUAAAAGGCAAGACCGUCAAAUUGCGGGAAAGGGGUCAACAGCCGUUCAGUACCAAGUCUCAGGGGAAACUUUGAGAUGGCCUUGCAAAGGGUAUGGUAAUAAGCUGACGGACAUGGUCCUAACCACGCAGCCAAGUCCUAAGUCAACAGAUCUUCUGUUGAUAUGGAUGCAGUUCACAGACUAAAUGUCGGUCGGGGAAGAUGUAUUCUUCUCAUAAGAUAUAGUCGGACCUCUCCUUAAUGGGAGCUAGCGGAUGAAGUGAUGCAACACUGGAGCCGCUGGGAACUAAUUUGUAUGCGAAAGUAUAUUGAUUAGUUUUGGAGUACUCGUGGUCG
# How it was run: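 Library with all eight P1ex-region intron nucleotides randomised, intron inside the knt kanamycin-resistance gene on pET-22b(+), in E. coli BL21(DE3). Cells grew overnight at 37°C or 30°C on LB agar with or without 25 μg/mL kanamycin (plus 100 μg/mL carbenicillin, 50 μM IPTG, 0.2% rhamnose), in six replicate transformations. Pooled colonies were amplicon-sequenced on Illumina HiSeq 2500. DiMSum fitness is the error-weighted combination of wild-type-normalised replicate fold changes, kanamycin versus none.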
Sequence,self-splicing fitness (ln) (30 °C),self-splicing fitness (ln) (37 °C)
AUUUAGCAAUAUUACGGUGA,-1.17 ± 0.27,-1.7 ± 0.19
AUUUAGCAAUAUUACGUAUU,-3 ± 0.16,-1.47 ± 0.19
AUUUAGCAAUAUUACGUCAG,-3.7 ± 0.28,-0.451 ± 0.2
AUUUAGCAAUAUUACGUCGA,-2.64 ± 0.29,-0.501 ± 0.19
AUUUAGCAAUAUUACGUCUC,-3.59 ± 0.37,-2.18 ± 0.3
AUUUAGCAAUAUUACGUGCG,-1.82 ± 0.091,-0.316 ± 0.12
AUUUAGCAAUAUUACGUGGC,-3.57 ± 0.43,-1.69 ± 0.32
AUUUAGCAAUAUUACGUGUG,-2.36 ± 0.11,-1.44 ± 0.11
AUUUAGCAAUAUUACGUUCG,-1.39 ± 0.11,-0.0499 ± 0.13
AUUUAGCAAUAUUACGUUCU,-0.544 ± 0.085,-0.0441 ± 0.12
CAAAAGCAAUAUUACGAACA,-1.95 ± 0.14,-0.613 ± 0.13
CAAAAGCAAUAUUACGAGGU,-3.46 ± 0.15,-2.91 ± 0.21
CAAAAGCAAUAUUACGAUCC,-2.58 ± 0.22,-1.26 ± 0.24
CAAAAGCAAUAUUACGCAUU,-3.45 ± 0.18,-3.29 ± 0.23
CAAAAGCAAUAUUACGCGAC,-3.52 ± 0.34,-4.08 ± 0.42
CAAAAGCAAUAUUACGCGUC,-3.72 ± 0.24,-1.86 ± 0.18
CAAAAGCAAUAUUACGGAAG,-1.23 ± 0.049,-0.438 ± 0.071
CAAAAGCAAUAUUACGGAGG,-0.939 ± 0.096,-0.844 ± 0.13
CAAAAGCAAUAUUACGGCCG,0.257 ± 0.11,0.574 ± 0.16
CAAAAGCAAUAUUACGGGAG,-2.05 ± 0.074,-0.972 ± 0.079
CAAAAGCAAUAUUACGGGGA,-3.26 ± 0.15,-2.36 ± 0.15
CAAAAGCAAUAUUACGUCAC,-3.63 ± 0.28,-2.06 ± 0.2
CAAAAGCAAUAUUACGUGGC,-3.26 ± 0.13,-2.6 ± 0.2
CAAAAGCAAUAUUACGUGGG,-3.26 ± 0.12,-2.6 ± 0.12

Sequence,self-splicing fitness (ln) (30 °C),self-splicing fitness (ln) (37 °C)
CAAAAGCAAUAUUACGUUCC,-2.34 ± 0.33,-2.17 ± 0.36
CAACAGCAAUAUUACGAAAU,-2.7 ± 0.12,-2.47 ± 0.2
CAACAGCAAUAUUACGAACA,-2.43 ± 0.099,-1.17 ± 0.075
CAACAGCAAUAUUACGAACU,-3.29 ± 0.15,-0.988 ± 0.11
CAACAGCAAUAUUACGAAGA,-2.55 ± 0.17,-2.35 ± 0.17
CAACAGCAAUAUUACGAAUU,-4.19 ± 0.26,-1.84 ± 0.12
CAACAGCAAUAUUACGACUC,-1.74 ± 0.11,-0.579 ± 0.12
CAACAGCAAUAUUACGAUAC,-3.29 ± 0.28,-2.91 ± 0.37
CAACAGCAAUAUUACGCGUA,-1.55 ± 0.093,-1.06 ± 0.088
CAACAGCAAUAUUACGCUAG,-3.53 ± 0.13,-2.6 ± 0.14
CAACAGCAAUAUUACGCUCU,-1.33 ± 0.079,-0.581 ± 0.1
CAACAGCAAUAUUACGGAGA,-3.07 ± 0.2,-1.82 ± 0.2
CAACAGCAAUAUUACGGCAU,-3.38 ± 0.12,-1.11 ± 0.09
CAACAGCAAUAUUACGGCCC,,-2.06 ± 0.33
CAACAGCAAUAUUACGGCGG,-0.393 ± 0.056,0.0944 ± 0.082
CAACAGCAAUAUUACGGGAC,-4.18 ± 0.17,-2.99 ± 0.16
CAACAGCAAUAUUACGGUCG,-0.273 ± 0.041,0.0819 ± 0.056
CAACAGCAAUAUUACGUAUA,-2.76 ± 0.12,-1.55 ± 0.11
CAACAGCAAUAUUACGUCAG,-0.334 ± 0.053,-0.55 ± 0.066
CAACAGCAAUAUUACGUCGU,-3.65 ± 0.12,-2.16 ± 0.11
CAACAGCAAUAUUACGUGAA,-1.36 ± 0.056,-1.62 ± 0.1
CAACAGCAAUAUUACGUGCC,-3.31 ± 0.2,-1.59 ± 0.15
CAACAGCAAUAUUACGUGGU,-4.16 ± 0.12,-2.01 ± 0.096
CAAGAGCAAUAUUACGACUC,-2.72 ± 0.24,-1.84 ± 0.27

Sequence,self-splicing fitness (ln) (30 °C),self-splicing fitness (ln) (37 °C)
CAAGAGCAAUAUUACGACUG,-1.57 ± 0.12,-1.19 ± 0.19
CAAGAGCAAUAUUACGAGAU,-3.29 ± 0.29,-2.8 ± 0.28
CAAGAGCAAUAUUACGAGGU,-4.09 ± 0.24,-2.71 ± 0.23
CAAGAGCAAUAUUACGAGUU,-2.81 ± 0.13,-2.82 ± 0.18
CAAGAGCAAUAUUACGAUCU,,-1.79 ± 0.31
CAAGAGCAAUAUUACGCACU,-3.06 ± 0.33,
CAAGAGCAAUAUUACGCCAU,-3.2 ± 0.23,-2.02 ± 0.28
CAAGAGCAAUAUUACGCGAC,-3.73 ± 0.23,-1.93 ± 0.13
CAAGAGCAAUAUUACGCGGC,-3.74 ± 0.31,-3.52 ± 0.28
CAAGAGCAAUAUUACGCUAA,-3.93 ± 0.27,-1.52 ± 0.21
CAAGAGCAAUAUUACGGACG,-0.541 ± 0.074,0.217 ± 0.093
CAAGAGCAAUAUUACGGCAA,-3.01 ± 0.29,-3.03 ± 0.38
CAAGAGCAAUAUUACGUAAU,-2.63 ± 0.23,-2.7 ± 0.32
CAAGAGCAAUAUUACGUACU,-3.74 ± 0.21,-1.92 ± 0.2
CAAGAGCAAUAUUACGUAUU,-3.55 ± 0.23,-1.83 ± 0.19
CAAGAGCAAUAUUACGUUGA,-3.98 ± 0.36,-2.94 ± 0.21
CAAGAGCAAUAUUACGUUUA,-2.84 ± 0.26,-1.61 ± 0.23
CAAGAGCAAUAUUACGUUUC,-3.38 ± 0.24,-2.01 ± 0.26
CAAUAGCAAUAUUACGAGGC,-3.6 ± 0.33,-1.44 ± 0.31
CAAUAGCAAUAUUACGAUAU,-4.72 ± 0.34,-2.59 ± 0.22
CAAUAGCAAUAUUACGAUUU,-2.3 ± 0.091,-0.775 ± 0.084
CAAUAGCAAUAUUACGCAAG,-1.19 ± 0.1,-0.905 ± 0.14
CAAUAGCAAUAUUACGCCCA,-1.6 ± 0.41,
CAAUAGCAAUAUUACGCGCC,,-1.04 ± 0.44

Sequence,self-splicing fitness (ln) (30 °C),self-splicing fitness (ln) (37 °C)
CAAUAGCAAUAUUACGCUGA,-3.11 ± 0.22,-1.85 ± 0.16
CAAUAGCAAUAUUACGCUGG,-1.32 ± 0.13,-0.734 ± 0.14
CAAUAGCAAUAUUACGGACA,-2.44 ± 0.16,-1.5 ± 0.15
CAAUAGCAAUAUUACGGCAA,-3.51 ± 0.38,-1.11 ± 0.22
CAAUAGCAAUAUUACGGCCA,-3.08 ± 0.3,-1.49 ± 0.32
CAAUAGCAAUAUUACGGGAU,-3.36 ± 0.31,-2.57 ± 0.35
CAAUAGCAAUAUUACGGUUG,-2.6 ± 0.12,-1.67 ± 0.12
CAAUAGCAAUAUUACGGUUU,-2.88 ± 0.13,-1.88 ± 0.15
CAAUAGCAAUAUUACGUAAC,-3.94 ± 0.35,-3.27 ± 0.43
CAAUAGCAAUAUUACGUAUC,-3.48 ± 0.15,-2.73 ± 0.18
CAAUAGCAAUAUUACGUGAG,-0.424 ± 0.076,0.678 ± 0.11
CAAUAGCAAUAUUACGUGUG,-1.72 ± 0.053,-0.748 ± 0.063
CAAUAGCAAUAUUACGUUCC,-2.6 ± 0.26,-2.13 ± 0.35
CAAUAGCAAUAUUACGUUUG,-2.52 ± 0.11,-1.52 ± 0.11
CAAUAGCAAUAUUACGUUUU,-5.04 ± 0.25,-2.5 ± 0.13
CACAAGCAAUAUUACGAACU,-3.64 ± 0.19,-2.37 ± 0.17
CACAAGCAAUAUUACGAAGC,-4.44 ± 0.28,-1.87 ± 0.19
CACAAGCAAUAUUACGACUA,-1.02 ± 0.089,-1.21 ± 0.074
CACAAGCAAUAUUACGAGGA,-3.18 ± 0.25,-2.59 ± 0.19
CACAAGCAAUAUUACGAUUG,-2.41 ± 0.064,-1.15 ± 0.075
CACAAGCAAUAUUACGCAAC,-3.27 ± 0.26,-2.27 ± 0.32
CACAAGCAAUAUUACGCCCU,-3.12 ± 0.19,-0.633 ± 0.13
CACAAGCAAUAUUACGCGGU,-3.66 ± 0.15,-2.04 ± 0.12
CACAAGCAAUAUUACGCUAG,-2.72 ± 0.13,-1.43 ± 0.1
